The text below walks through data of patent publication US20240360233A1 (University of Texas, published 2024).

Assay [1] concerns the target T1, his-tagged TSLPR (TSLPR-HIS) (UniProt Q9HC73 23-231, limits assumed).
T1 construct: Soluble protein used in the ForteBio assay; not shown: His tag
T1 sequence (looked up): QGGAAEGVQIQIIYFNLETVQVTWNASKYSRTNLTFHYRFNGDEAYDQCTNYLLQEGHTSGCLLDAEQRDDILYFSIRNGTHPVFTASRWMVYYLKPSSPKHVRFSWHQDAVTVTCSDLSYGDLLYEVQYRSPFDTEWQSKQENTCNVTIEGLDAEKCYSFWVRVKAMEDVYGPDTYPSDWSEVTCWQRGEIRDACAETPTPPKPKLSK
Description: BLI (ForteBio AHQ sensor), antibody captured, TSLPR-HIS in solution. On the procedure: (§1) TSLPR antibody clones whose VH and VL sequences are disclosed in Tables 9 and 10 were bound to the AHQ sensor and his-tagged TSLPR (TSLPR-HIS) was provided in solution. […] The anti-TSLPR antibodies were serially diluted with an HBS-EP solution (GE Healthcare), and 100 μL of the solution was added to the flow path at a flow rate of […].
(BLI is a label-free optical method that tracks binding on a fibre tip over time.)

The target in assay [2] is T1, his-tagged TSLPR (TSLPR-HIS). As to the kind of experiment: BLI (ForteBio AHQ sensor), antibody captured, TSLPR-HIS and TSLP in solution; competitor TSLP. The method, then:
as §1

Bounds are passed on as bounds.

B1: TSLPR antibody clone 2H8 (antibody, V domains shown)
VH: EVQLLESGGGLEQPGGSLRLSCAASGFTFSSHAMNWVRQAPGKGLEWVSAISGSGGSTYYADSVKGRFTISRDNSKNTLCLQMNSLRAEDTAVYYCARGHNSGWPYWGQGTLVTVSS
VL: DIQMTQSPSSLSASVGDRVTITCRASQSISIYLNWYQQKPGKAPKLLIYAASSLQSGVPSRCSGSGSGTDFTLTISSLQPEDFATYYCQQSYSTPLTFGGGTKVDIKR
notes: Captured on an anti-human IgG sensor
In assay [1], B1 displayed a dissociation constant Kd of 0.806 nM, an off-rate (koff) of 0.000191 s⁻¹ and a kon of 237000 M⁻¹ s⁻¹.

B2: TSLPR antibody clone 2B2 (antibody, V domains shown)
VH: QVQLVESGGGVVQPGRSLRLSCAASGFTFSNYGMHWVRQAPGKGLEWVSFIWYDGSHRYYADSVKGRFTISRDNSKNTLYLQMNSLRAEDTAVYYCAKGRGGLDWYFDLWGRGTLVTVSS
VL: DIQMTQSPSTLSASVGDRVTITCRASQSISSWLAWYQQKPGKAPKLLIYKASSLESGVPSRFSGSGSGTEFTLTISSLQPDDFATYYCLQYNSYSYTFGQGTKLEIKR
notes: as for B1
In assay [1], B2 had a Kd of 8.07 nM, a koff of 0.00324 s⁻¹ and an on-rate constant (kon) of 401000 M⁻¹ s⁻¹. The “TSLPR-TSLP Response” value in assay [2] turned out to be 21.2%.

B3: TSLPR antibody clone 1G3 (antibody, V domains shown)
VH: QVQLVESGGGVVQPGRSLRLSCAASGFTFSSYGMHWVRQTPGKGLEWVAVMWYDGRNKYYADSVKGRFTISRDNSKNTLYLQMNSLRAEDTAVYYCARDRIMVRGVIIPHVFDIWGQGTMVTVSS
VL: EIVMTQSPATLSVSPGERATLSCRASQSVSSNLGWYQQKPGQAPRLLIYGASTRATGIPARFSGSGSGTEFILTISSLQSEDFAVYYCQEYNNWWTFGQGTKVDIKR
notes: as for B1
Consider B3, for which, in assay [1], the Kd turned out to be 11.7 nM, the off-rate constant (koff) was found to be 0.0021 s⁻¹ and the kon was 179000 M⁻¹ s⁻¹.

B4: TSLPR antibody clone 2E4 (antibody, V domains shown)
VH: EVQLLESGGGLVQPGGSLRLSCAASGFTFSSYAMNWVRQAPGKGLEWVSGISGSGGSTYYADSVKGRFTFSRDNSKNTLYLQMISLRAEDTAVYYCAKDQRITMVRGVIGAFDIWGQGTMVTVSS
VL: DIQMTQSPSTLSASVGDRVTITCRASQSISSWLAWYQQKPGKAPKLLIYKASSLESGVPSRFSGSGSGTEFTLTISSLQPDDFATYYCQQYVGLITFGQGTRLEIKR
notes: as for B1
In assay [1], B4 gave a Kd of 1.01 nM, an off-rate (koff) of 0.000294 s⁻¹ and a kon of 292000 M⁻¹ s⁻¹.

B5: TSLPR antibody clone 2H1 (antibody, V domains shown)
VH: EVQLLESGGGLVQPGGSLSLSCAASGFTFSRYGMHWVRQAPGKGLEWVSAISASGGSTYYADSVKGRFTISRDNSKNTLYLQMNSLRAEDTAVYYCAKDKWGYAFDIWGQGTTVTVSS
VL: DIQMTQSPSTLSASVGDRVTITCRASQSISNWLAWYQQKPGKAPKLLIYKASSLESGVPSRFSGSGSGTEFTLTISSLQPDDFATYYCLQYNHYSTFGQGTKVDIKR
notes: as for B1
For B5, the “TSLPR-TSLP Response” value in assay [2] is 80%.

B6: TSLPR antibody clone 1B9 (antibody, V domains shown)
VH: QVQLQESGPGLVKPSGTLSLTCAVSGGSIRSSNWWSWVRQPPGKGLEWIGEIYHGGTTNNNPSLKSRVTISVDQSKSQFSLKLSSVTAADTAVYYCARHRYSSGLDYWGQGTLVTVSS
VL: DIQMTQTPSTLSASVGDRVTITCRGSHSISNWLGWYRHKPRKAPNLLIYKASSLKSGVPSRFSGSGSGTEFTLTITSLQPDDFATYYCQQYNHYSTFGQGTKVDIKR
notes: as for B1
In assay [1], B6 yielded a dissociation constant (Kd) of 2.33 nM, a koff of 0.00127 s⁻¹ and an association rate constant (kon) of 545000 M⁻¹ s⁻¹.

B7: TSLPR antibody clone 1F6 (antibody, V domains shown)
VH: QVQLVQSGAEVRKPGSSVKVSCKASGGTVSSYAISWVRQAPGQGLEWMGGITPIFGTAKYAQKFQGRVTITADKSTSTAYMELSSLRSEDTAVYYCARGGIAAAGTFDYWGQGTLVTVSS
VL: not shown
notes: as for B1
Turning to B7, in assay [1], the Kd amounted to 3.9 nM, the dissociation rate constant (koff) came out at 0.00137 s⁻¹ and the on-rate constant (kon) is 351000 M⁻¹ s⁻¹.

B8: TSLPR antibody clone 2H4 (antibody, V domains shown)
VH: QVQLVQSGAEVKKPGSSVKVSCKASGGTFNSYAISWVRQAPGQGLEWMGGITPIFGTAKYAQKFQGRVTITADKSTSTTYMELSSLRSEDTAVYYCARPGIIVAGPFDYWGQGTLVTVSS
VL: not shown
notes: as for B1
With B8, in assay [1], the dissociation constant Kd amounted to 5.91 nM, the dissociation rate constant (koff) is 0.0015 s⁻¹ and the kon stood at 254000 M⁻¹ s⁻¹. In addition, in assay [2], the “TSLPR-TSLP Response” value came out at 32.2%.

B9: TSLPR antibody clone 1A10 (antibody, V domains shown)
VH: QVQLQESGPGLVKPSETLSLTCNVSGGSISTYYWNWLRQPPGKGLEWIGSIYYSGTTNYNPSLKSRVTISVDTSKHQFSLRLTSVTAADTAVYFCARDQGYYHGSGSYFFDYWGQGTLVTVSS
VL: EIVMTQSPATLSVSPGERATLSCRASQSVSSHLAWYQQKPGQAPRLLIYGASTRATGIPARFSGSGSGTEFTLTISSLQSEDFAIFYCQQYNNWPLTFGGGTKVDIKR
notes: as for B1
B9: in assay [1], binding was put at a Kd of 8.9 nM, the off-rate constant (koff) was 0.00119 s⁻¹ and the kon was determined as 133000 M⁻¹ s⁻¹.

B10: TSLPR antibody clone 10C4 (antibody, V domains shown)
VH: QVQLQESGPGLVKPSGTLSLTCAVSGGSINSNNWWSWVRQPPGKGLEWIGDIYHSGSTNYNPSLKSRVTISVDKSKSQFSLKLSSVTAADTAVYYCARRRWLQHFDFWGQGTLVTVSS
VL: DIQMTQSPSTLSASVGDRVTITCRASQSITNWLAWYQQKPGKAPKLLIYKASSLESGVPSRFSGSGSGTEFTLAISSLQPDDFATYYCQQYNIYPLAFGGGTKVEIKR
notes: as for B1
Take B10: in assay [1], the Kd is 4.86 nM, the off-rate constant (koff) came to 0.000334 s⁻¹ and the on-rate (kon) came out at 68800 M⁻¹ s⁻¹.

B11: TSLPR antibody clone 1D10 (antibody, V domains shown)
VH: QVQLQESGPGLVKPSETLSLTCTVSGGSISRYYWSWIRQPPGKGLEWIGYIFYNKNTNYNPSLKSRVTISVDTSKNQFSLKLSSVTAADTAVYYCARYIAAIYTDLYYFDYWGQGTLVTVSS
VL: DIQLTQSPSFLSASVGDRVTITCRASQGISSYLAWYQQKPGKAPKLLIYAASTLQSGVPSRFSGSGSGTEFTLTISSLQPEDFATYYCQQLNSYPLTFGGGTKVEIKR
notes: as for B1
For the molecule B11, in assay [1], the Kd is less than 0.001 nM, the koff was less than 1e-07 s⁻¹ and the on-rate constant (kon) came to 16200 M⁻¹ s⁻¹.

B12: TSLPR antibody clone 2F1 (antibody, V domains shown)
VH: QVQLQESGPGLVKPSETLSLTCTVSGGSISRYYWSWIRQPPGKGLEWIGYIFYNKNTNYNPSLKSRVTISVDTSKNQFSLKLSSVTAADTAVYYCARYIAAIYTDLYYFDYWGQGTLVTVSS
VL: DIQLTQSPSFLSASVGDRVTITCRASQGISSYLAWYQQKPGKAPKLLIYAASTLQSGVPSRFSGSGSGTEFTLTISSLQPEDFATYHCQQLNSYPLTFGGMTKVEIKR
notes: as for B1
On to B12, for which, in assay [1], the dissociation constant (Kd) came out at 4.33 nM, the off-rate (koff) came to 0.000332 s⁻¹ and the association rate constant (kon) was determined as 76800 M⁻¹ s⁻¹. For the same molecule, the “TSLPR-TSLP Response” value in assay [2] is 204%.

B13: TSLPR antibody clone 2D11 (antibody, V domains shown)
VH: QVQLQESGPGLVKPSETLSLTCAVSGYSISSGYYWGWIRQPPGKGLEWIGRIYHSGTTSYNPSLKRRVTISVDTSKNQFSLKLSSVTATDTAVYYCARNWGGNWFDPWGQGTLVTVSS
VL: DIQMTQSPSSLSASVGDRVTITCRASQGISNYLAWYQQKPGKVPKLLIYAASTLQSGVPSRFSGSGSGTDFTLTISSLQPEDVATYYCQKYNSARTFGQGTKVDIKR
notes: as for B1
As to B13, in assay [1], the affinity, expressed as Kd, was 5.29 nM; the koff was 0.000881 s⁻¹; the on-rate (kon) amounted to 167000 M⁻¹ s⁻¹. The “TSLPR-TSLP Response” value in assay [2] was 83.2%.

B14: TSLPR antibody clone 2A4 (antibody, V domains shown)
VH: QVQLVQSGAEVKKPGASVKVSCKASGYTFTGYYMHWVRQAPGQGLEWMGRFNLHSGVTNYAQKFQGRVTMTRDTSISTVYMDLSRLRSDDTAVYYCARERQWLVQDYFDYWGQGTLVTVSS
VL: DIQMTQSPSSLSASVGDRVTITCRASQSISNYLNWYQQKPGKAPNLLICAASSLQSGVPSRFSGSGSGTDFTLTISSLQPEDFATYYCQQSYSIPPTFGQGTKVDIKR
notes: as for B1
For B14, in assay [1], the Kd was 3.07 nM, the koff was found to be 0.000326 s⁻¹ and the kon turned out to be 106000 M⁻¹ s⁻¹. Moreover, in assay [2], the “TSLPR-TSLP Response” value is -3.7%.

B15: TSLPR antibody clone 3E5 (antibody, V domains shown)
VH: EVQLLESGGGLVQPGGSLRLSCAASGFTFSSNAMSWVRQAPGKGLEWVSAIRGRGGSTYYADSVKGRFTISRDNSKNTLYLQLNSLRAEDTAVYYCAKDRIVVAGPFDHWGQGTLVTVSS
VL: DIQLTQSPSFLSASVGDRVTITCRASQGISSYLAWYQQKPGKAPKLLIYAASTLQSGVPSRFSGSGSGTEFTLTISSLQPEDFATYYCQQLNRYPLTFGGGTKVDIKR
notes: as for B1
Turning to B15, in assay [1], the Kd is 6.81 nM, the dissociation rate constant (koff) is 0.00139 s⁻¹ and the kon was 204000 M⁻¹ s⁻¹.

B16: TSLPR antibody clone 3D8 (antibody, V domains shown)
VH: QVQLVESGGGVVQPGRSLRLSCAASGFTFSSYVMHWVRQAPGKGLEWVAVIWYAGNKKYYADSVKGRFTISRDNSNNTLYLQMNSLRAEDTAVYYCAREYSSSWHYYGMDVWGQGTTVTVSS
VL: DIQLTQSPSFLSASVGDRVTITCRASQGISSYLAWYQQKPGKAPKLLIYAASTLQSGVPSRFSGSGSGTEFTLTISSLQPEDFATYYCQQLNSYPLTFGGGTKVDIKR
notes: as for B1
In assay [1], B16 came in with an equilibrium dissociation constant (Kd) of 1.16 nM, a dissociation rate constant (koff) of 0.000134 s⁻¹ and a kon of 116000 M⁻¹ s⁻¹.

B17: TSLPR antibody clone 2E6 (antibody, V domains shown)
VH: EVQLLESGGNLVQPGGSLRLSCAASGFTFGSYVMTWGRQAPGKGLEWVSTISASGGSTYYADSVKGRFTISRDNSKNTLYLQMNSLRAEDTAVYYCAKDKWGKGFDIWGQGTMVTVSS
VL: DIQLTQSPSFLSASVGDRVTITCRASQGISSYLAWYQQKPGKAPKLLIYAASTLQSGVPSRFSGSGSGTEFTLTISSLQPEDFATYYCQQLNSYPPTFGGGTKVEIKR
notes: as for B1
Regarding B17, in assay [1], the Kd was 7.63 nM, the koff was determined as 0.0014 s⁻¹ and the kon turned out to be 184000 M⁻¹ s⁻¹. Also, the “TSLPR-TSLP Response” value in assay [2] turned out to be 82.6%.

B18: TSLPR antibody clone 2F5 (antibody, V domains shown)
VH: EVQLVESGGGLVQSGGSLRFSCAASGFTFSSHPMNWVRQVPGKGLEWVSSISGSGGSTYYADFVKGRFTISRDNSKNTLYLQMNSLRAEDTAVYYCAKGHNSGWKYWGQGTLVTVSS
VL: DIQLTQSPSFLSASVGDRVTITCRASQGISSYLAWYQQKPGKAPKLLIYAASTLQSGVPSRFSGSGSGTEFTLTISSLQPEDFATYYCQQLNSYPPTFGQGTKVDIKR
notes: as for B1
In assay [1], B18 returned a Kd of 1.28 nM, an off-rate constant (koff) of 0.00045 s⁻¹ and a kon of 351000 M⁻¹ s⁻¹. Further, the “TSLPR-TSLP Response” value in assay [2] stood at 120%.

One may read the Kd as the concentration at which binding is half-saturated. Lower therefore signals higher affinity. The term koff denotes the first-order rate constant of dissociation. As usually defined, the kon is the second-order rate constant of association.
